Experimental data taken from paper PMC3909270, “The basic keratin 10-binding domain of the virulence-associated pneumococcal serine-rich protein PsrP adopts a novel MSCRAMM fold” (Open Biology, 2014).

B2: KRT10 tail-rod-2B domain (KRT10-TRD) (domain or fragment)
chain: LKQSLEASLAETEGRYCVQLSQIQAQISALEEQLQQIRAETECQNTEYQQLLDIKIRLENEIQTYRSLLEGEGSSGGGGRGGGSFGGGYGGGSSGGGSSGGGHGGGHGGSSGGGYGGGSSGGGSSGGGYGGGSSSGGHGGSSSGGYGGGSSGGGGGGYGGGSSGGGSSSGGGYGGGSSSGGHKSSSSGSVGESSS
notes: Keratin-10 (KRT10), tail-rod-2B domain, residues 385-579, Uniprot ID P13645; source: expressed from pET21d, soluble, purified (IMAC, anion exchange)

Columns and labels:
Conditions in all cases: both partners purified
[1] = molecular target: T1, full-length keratin-10 (KRT10-FL) (human, UniProt P13645 1-584); assay: ELISA; KRT10 constructs coated on Nunc C96 plates (coating adjusted to KRT10-TRD at about 5 µg/ml), 2% BSA block; STII-BR_(187–385) 23 nM to 3 µM in PBS; detected with Strep-Tactin HRP; four-parameter logistic fit
T1 construct: Keratin-10 (KRT10), residues 1-584, Uniprot ID P13645; also called KRT10-full-length; full-length KRT10; source: expressed from pET21d, purified as inclusion bodies, anion exchange in 6 M urea, dialysed against urea-free buffer
T1 sequence (looked up): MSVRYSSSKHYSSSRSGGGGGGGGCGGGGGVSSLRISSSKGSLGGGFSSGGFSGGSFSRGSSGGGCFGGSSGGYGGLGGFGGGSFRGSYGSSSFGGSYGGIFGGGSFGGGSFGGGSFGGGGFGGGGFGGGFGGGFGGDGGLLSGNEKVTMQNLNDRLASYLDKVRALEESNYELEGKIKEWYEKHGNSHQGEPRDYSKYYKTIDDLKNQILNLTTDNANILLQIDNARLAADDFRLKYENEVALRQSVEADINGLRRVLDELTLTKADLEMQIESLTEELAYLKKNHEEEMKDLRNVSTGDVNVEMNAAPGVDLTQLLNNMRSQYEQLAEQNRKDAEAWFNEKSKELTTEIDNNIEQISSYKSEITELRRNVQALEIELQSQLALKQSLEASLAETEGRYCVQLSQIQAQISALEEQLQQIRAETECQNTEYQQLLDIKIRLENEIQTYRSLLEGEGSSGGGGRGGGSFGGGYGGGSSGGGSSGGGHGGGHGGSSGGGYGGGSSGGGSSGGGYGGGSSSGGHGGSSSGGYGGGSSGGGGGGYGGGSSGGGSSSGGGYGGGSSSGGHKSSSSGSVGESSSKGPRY

[2] = molecular target: T2, KRT10 rod domain (KRT10-ROD) (human, UniProt P13645 137-448, M150L); assay: as above
T2 construct: Keratin-10 (KRT10), rod domain, residues 137-448, Uniprot ID P13645; M150L introduced to prevent second translation initiation; source: expressed from pET21d, purified as inclusion bodies, anion exchange in 6 M urea, dialysed against urea-free buffer
T2 sequence: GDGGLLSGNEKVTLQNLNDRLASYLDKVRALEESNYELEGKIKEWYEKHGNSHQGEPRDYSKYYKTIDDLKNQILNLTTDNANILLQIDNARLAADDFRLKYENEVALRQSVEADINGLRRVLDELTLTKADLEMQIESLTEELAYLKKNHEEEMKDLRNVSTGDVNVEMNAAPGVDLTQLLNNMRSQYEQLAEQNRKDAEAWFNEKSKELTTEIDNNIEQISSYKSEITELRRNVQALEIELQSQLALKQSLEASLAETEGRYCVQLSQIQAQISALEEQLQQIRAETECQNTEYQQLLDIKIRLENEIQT

[3] = molecular target: B2; assay: as above
[4] = molecular target: T3, K231A-BR_(187–385) (S. pneumoniae TIGR4, UniProt A0A0H2URK1 186-384, K231A); assay: ELISA; KRT10-TRD coated; WT-BR_(187–385) and mutated variants at a single concentration of 1 µM; detected with Strep-Tactin HRP; normalised intensities
T3 construct: PsrP, S. pneumoniae TIGR4, residues 187-385, with K231A; also called control K231A-BR_(187–385); source: expressed from pET21d; purification of the mutants not detailed (SEC mentioned)
T3 sequence: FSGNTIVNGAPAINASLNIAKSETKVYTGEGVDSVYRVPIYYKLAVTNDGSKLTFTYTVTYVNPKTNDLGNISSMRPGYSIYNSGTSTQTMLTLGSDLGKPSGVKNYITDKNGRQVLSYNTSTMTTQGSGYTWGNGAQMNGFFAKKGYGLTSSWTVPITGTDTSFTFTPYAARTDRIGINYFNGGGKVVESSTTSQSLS

[5] = molecular target: T4, N321A-BR_(187–385) (S. pneumoniae TIGR4, UniProt A0A0H2URK1 186-384, N321A); assay: as above
T4 construct: PsrP, S. pneumoniae TIGR4, residues 187-385, with N321A; source: expressed from pET21d; purification of the mutants not detailed (SEC mentioned)
T4 sequence: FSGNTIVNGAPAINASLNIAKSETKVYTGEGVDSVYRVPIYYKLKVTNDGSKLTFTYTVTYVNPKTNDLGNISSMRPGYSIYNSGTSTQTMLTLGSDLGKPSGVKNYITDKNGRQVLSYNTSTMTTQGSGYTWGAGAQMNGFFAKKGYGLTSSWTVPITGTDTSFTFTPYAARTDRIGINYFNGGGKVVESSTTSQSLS

B1: Strep-Tag-II BR_(187–385) (KRT10-binding domain of the pneumococcal serine-rich repeat protein PsrP) (domain or fragment)
chain: FSGNTIVNGAPAINASLNIAKSETKVYTGEGVDSVYRVPIYYKLKVTNDGSKLTFTYTVTYVNPKTNDLGNISSMRPGYSIYNSGTSTQTMLTLGSDLGKPSGVKNYITDKNGRQVLSYNTSTMTTQGSGYTWGNGAQMNGFFAKKGYGLTSSWTVPITGTDTSFTFTPYAARTDRIGINYFNGGGKVVESSTTSQSLS
notes: also called STII-BR_(187–385); WT-BR_(187–385)
- EC50 [1]: 345 nM
- EC50 [2]: ~1800 nM
- EC50 [3]: 345 nM

Binder: B2
- binding result [4]: binds
- binding result [5]: binds
